# Source: US20060160076A1
# Molecular target: CX3CR1 (endogenous, on 3T3-L1 adipocytes) (mouse) (UniProt Q9Z0D9)
# Assay: cell-based or functional assay
# UniProt Q9Z0D9, sequence (Q9Z0D9 whole entry): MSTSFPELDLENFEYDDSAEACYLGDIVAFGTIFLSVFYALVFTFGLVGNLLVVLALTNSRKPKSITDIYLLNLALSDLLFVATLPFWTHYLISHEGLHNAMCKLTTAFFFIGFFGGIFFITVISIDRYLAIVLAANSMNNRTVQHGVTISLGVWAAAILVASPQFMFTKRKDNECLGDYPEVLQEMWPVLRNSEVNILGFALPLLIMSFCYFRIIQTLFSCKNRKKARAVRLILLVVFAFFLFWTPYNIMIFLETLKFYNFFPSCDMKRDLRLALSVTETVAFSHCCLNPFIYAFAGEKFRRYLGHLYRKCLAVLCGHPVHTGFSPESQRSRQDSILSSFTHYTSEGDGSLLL
substance,measurement,value
recombinant soluble fractalkine (ligand),"fold change in glucose uptake over vehicle pretreatment alone; +1 nM FRA, +0.1 nM INS",1.6 fold
same,"fold change in glucose uptake over vehicle pretreatment alone; +1 nM FRA, +1 nM INS",1.6 fold
same,"fold change in glucose uptake over vehicle pretreatment alone; +1 nM FRA, +10 nM INS",0.9 fold
same,"fold change in glucose uptake over vehicle pretreatment alone; +1 nM FRA, basal",1.4 fold
same,"fold change in glucose uptake over vehicle pretreatment alone; +10 nM FRA, +0.1 nM INS",1.9 fold
same,"fold change in glucose uptake over vehicle pretreatment alone; +10 nM FRA, +1 nM INS",1.8 fold
same,"fold change in glucose uptake over vehicle pretreatment alone; +10 nM FRA, +10 nM INS",0.9 fold
same,"fold change in glucose uptake over vehicle pretreatment alone; +10 nM FRA, basal",1.3 fold
same,"fold change in glucose uptake over vehicle pretreatment alone; +100 nM FRA, +0.1 nM INS",2 fold
same,"fold change in glucose uptake over vehicle pretreatment alone; +100 nM FRA, +1 nM INS",1.3 fold
same,"fold change in glucose uptake over vehicle pretreatment alone; +100 nM FRA, +10 nM INS",1.1 fold
same,"fold change in glucose uptake over vehicle pretreatment alone; +100 nM FRA, basal",1.3 fold
same,mean 2-DOG uptake value; 1 nM FRA+0.1 nM INS,1090
same,mean 2-DOG uptake value; 1 nM FRA+10 nM INS,3660
same,mean 2-DOG uptake value; 1 nM FRA+Basal,544
same,mean 2-DOG uptake value; 1 nM FRA+nM INS (so in the source),3160
same,mean 2-DOG uptake value; 10 nM FRA+0.1 nM INS,1280
same,mean 2-DOG uptake value; 10 nM FRA+1 nM INS,3540
same,mean 2-DOG uptake value; 10 nM FRA+10 nM INS,3750
same,mean 2-DOG uptake value; 10 nM FRA+Basal,521
same,mean 2-DOG uptake value; 100 nM FRA+0.1 nM INS,1350
same,mean 2-DOG uptake value; 100 nM FRA+1 nM INS,2730
same,mean 2-DOG uptake value; 100 nM FRA+10 nM INS,4350
same,mean 2-DOG uptake value; 100 nM FRA+Basal,515
